Data taken from IntAct's records for PubMed 26900326.

B1: Molecular chaperone MKKS (Homo sapiens), Q9NPJ1 (parent)
chain: MSRLEAKKPSLCKSEPLTTERVRTTLSVLKRIVTSCYGPSGRLKQLHNGFGGYVCTTSQSSALLSHLLVTHPILKILTASIQNHVSSFSDCGLFTAILCCNLIENVQRLGLTPTTVIRLNKHLLSLCISYLKSETCGCRIPVDFSSTQILLCLVRSILTSKPACMLTRKETEHVSALILRAFLLTIPENAEGHIILGKSLIVPLKGQRVIDSTVLPGILIEMSEVQLMRLLPIKKSTALKVALFCTTLSGDTSDTGEGTVVVSYGVSLENAVLDQLLNLGRQLISDHVDLVLCQKVIHPSLKQFLNMHRIIAIDRIGVTLMEPLTKMTGTQPIGSLGSICPNSYGSVKDVCTAKFGSKHFFHLIPNEATICSLLLCNRNDTAWDELKLTCQTALHVLQLTLKEPWALLGGGCTETHLAAYIRHKTHNDPESILKDDECTQTELQLIAEAFCSALESVVGSLEHDGGEILTDMKYGHLWSVQADSPCVANWPDLLSQCGCGLYNSQEELNWSFLRSTRRPFVPQSCLPHEAVGSASNLTLDCLTAKLSGLQVAVETANLILDLSYVIEDKN
partner: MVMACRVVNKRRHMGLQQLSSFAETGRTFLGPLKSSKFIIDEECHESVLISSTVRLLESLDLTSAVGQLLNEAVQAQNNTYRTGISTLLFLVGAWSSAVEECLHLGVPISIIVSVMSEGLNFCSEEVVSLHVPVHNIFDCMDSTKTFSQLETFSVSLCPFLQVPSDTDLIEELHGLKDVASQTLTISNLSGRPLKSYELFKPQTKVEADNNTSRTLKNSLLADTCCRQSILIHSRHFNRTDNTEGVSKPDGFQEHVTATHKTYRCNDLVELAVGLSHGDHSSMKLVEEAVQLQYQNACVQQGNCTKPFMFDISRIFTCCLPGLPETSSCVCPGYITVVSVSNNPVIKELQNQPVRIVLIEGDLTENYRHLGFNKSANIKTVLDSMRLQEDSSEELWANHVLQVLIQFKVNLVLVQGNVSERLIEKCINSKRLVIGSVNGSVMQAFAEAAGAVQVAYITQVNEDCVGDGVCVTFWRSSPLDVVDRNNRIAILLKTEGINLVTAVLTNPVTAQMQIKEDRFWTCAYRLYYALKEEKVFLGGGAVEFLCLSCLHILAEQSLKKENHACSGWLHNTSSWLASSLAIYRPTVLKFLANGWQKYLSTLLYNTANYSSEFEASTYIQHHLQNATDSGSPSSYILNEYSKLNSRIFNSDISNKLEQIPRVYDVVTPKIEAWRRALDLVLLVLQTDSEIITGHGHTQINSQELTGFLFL

Variants of: B1
Conditions: with bbs12_human BBS12, Q6ZW61

effect of a mutation on the interaction | Variant
disrupting interaction strength | T57A
decreasing interaction strength | H395R
decreasing interaction strength | L277P
